Reference: the supplement of paper PMC11780869

System: Bacillus subtilis
Assay: cleaved RNA product abundance (RNA/gDNA barcode ratio) relative to median wild-type variant (ratio to wild type); higher = more accumulation of the downstream cleavage product
Description: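 MPRA in B. subtilis. Mutagenized RNase Y cleavage-site regions (9% mutation rate) were inserted into a barcoded reporter mRNA (truncated aprE or tetM). Cells were grown in LB at 37°C to OD600 0.3. The cleaved RNA isoform was gel-purified and its barcodes counted; the RNA:gDNA barcode ratio was normalised to the median wild-type variant, and the median over barcodes is reported per variant. The printed sequence is the variable window only; the reporter flanks are not printed.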

[1] = experiment (reporter, strain, medium): exp 2b: truncated aprE reporter, strain BJT200, cleavage site: cggR-gapA (positions -7 to +36 mutated)
[2] = experiment (reporter, strain, medium): exp 8a: truncated aprE reporter, strain BJT201 with 2% xylose (RNase J1 expressed), cleavage site: glnRA (positions -5 to +31 mutated)
[3] = experiment (reporter, strain, medium): exp 4a: truncated aprE reporter, strain BJT201 with 2% xylose (RNase J1 expressed), cleavage site: cggR-gapA (positions -7 to +36 mutated)
[4] = experiment (reporter, strain, medium): exp 6: tetM reporter, strain 168, cleavage site: cggR-gapA (positions -7 to +36 mutated)

## ACAGACGAAGGAGCCGCAAGGAAGTAATTAAGGGATGAATAATCCATCAATATAAATATCTCTCACTTATTTAAA
[1]
  cleaved RNA product abundance: 0.122

## CGACATGTCCCGCTTCTTTCATTATTCCGTTAGCAACTGTTTTACTATATACATATACCTTTTAAGAGGAGGAAT
[2]
  cleaved RNA product abundance: 0.607

## ACAGACGAAGGAGCCGCAAAGAAGTTATGAAGGGATGAATAATCCCTCAATATACATATCTCTCACTTATTTAAA
[3]
  cleaved RNA product abundance: 0.344

## ACAGACGAAGGAGCCGCAAAGAAGTTATTAAGGGATGAATATTCCGTCAATATAAATATCTCTCACTTATTTAAA
[3]
  cleaved RNA product abundance: 0.194

## ACAGACGAAGGAGCCGCAAAGAAGTTTTTAAGGGATGTATAATCCCTCAATATAAATATCTCTCACTTATTTAAA
[1]
  cleaved RNA product abundance: 0.285
[3]
  cleaved RNA product abundance: 0.331

## ACAGACGAAGGAGCCGCAAAGAAGTTATTAAGGGATGAAGAATTCCTCAATATAAATATCTCTCACTTATTTAAA
[3]
  cleaved RNA product abundance: 0.29

## ACAGACGAAGGAGCCGCAAAGAAGTTATTAAGGGATGAATAATCCCTCAAATATAAATATCTCTCACTTATTTAA
[1]
  cleaved RNA product abundance: 0.38
[3]
  cleaved RNA product abundance: 0.539

## CGACATGTCCCGCTTCTTTCATTAATCCGTTATCAACTGTTTTACTATATACATTTACCTTTTAAGAGGAGGAAT
[2]
  cleaved RNA product abundance: 0.335

## CGACATGTCCCGCTTCTTTCATTAATCCGTTAGCAATTGTTTTGCTATAGACATTTACCTTTTAAGAGGAGGAAT
[2]
  cleaved RNA product abundance: 0.345

## ACAGACGAAGGAGCCGCAAAGAAGTTACTAAGGGATGAATAATCCCTCGATATAAATATCTCTCACTTATTTAAA
[3]
  cleaved RNA product abundance: 0.227

## CGACATGTCCCGCTTCTTTCATTAATCCGTTAGCAACTGTTTTGATATATACATCTACCTTTTAAGAGGAGGAAT
[2]
  cleaved RNA product abundance: 0.44

## ACAGACGAAGGAGCCGCAAAGAAGTTATTAAGGGATGAATAGTCCCTCAAAATAAATATCTCTCACTTATTTAAA
[3]
  cleaved RNA product abundance: 0.31

## ACAGACGAAGGAGCCGCAAAGAATTTATTAAGGGATGAATAATACCTCAATATAAATATCTCTCACTTATTTAAA
[1]
  cleaved RNA product abundance: 0.105
[3]
  cleaved RNA product abundance: 0.177

## ACAGACGAAGGAGCCGCAAAGAAGTTACTAAGGGATGAATAATTCCTCAATATAAATATCTCTCACTTATTTAAA
[3]
  cleaved RNA product abundance: 0.24

## ACAGACGAAGGAGCCGCAAAGAAGTTATTAAGGAATGAATAATCCCTCAATATAAATTTCTCTCACTTATTTAAA
[1]
  cleaved RNA product abundance: 0.114
[3]
  cleaved RNA product abundance: 0.142

## ACAGACGAAGGAGCCGCAAAGAAGTTATTAAGGGATGAATAATCCCTCAAAATAAATAGCTCTCACTTATTTAAA
[1]
  cleaved RNA product abundance: 0.26

## ACAGACGAAGGAGCCGCAAAGAAGTTATCAAGGGATTAATAATCCCTCAATATAAATATCTCTCACTTATTTAAA
[3]
  cleaved RNA product abundance: 0.301

## ACAGACGAAGGAGCCGCAAAGAAGTTATTAAAGAATGAATAATACCTCAATATAAATATCTCTCACTTATTTAAA
[3]
  cleaved RNA product abundance: 0.159

## ACAGACGAAGGAGCCGCAAAGAAGATATTAACGGATGAATAATCCCTCAATATAAATATCTCTCACTTATTTAAA
[3]
  cleaved RNA product abundance: 0.207

## ACAGACGAAGGAGCCGCAAATAAGTTATTAAGGGATGAACAATCCCTCAATATAAATATCTCTCACTTATTTAAA
[1]
  cleaved RNA product abundance: 0.897
[3]
  cleaved RNA product abundance: 0.924

## ACAGACGAAGGAGCCGCAAAGAAGTTATTAAGGGATTAATAATCCCTCAATGTAAATATCTCTCACTTATTTAAA
[3]
  cleaved RNA product abundance: 0.108

## ACAGACGAAGGAGCCGCAAAGAAGTTTTTAAGGGATGAGTAATCCCTCAATATAAATATCTCTCACTTATTTAAA
[3]
  cleaved RNA product abundance: 0.235

## CGACATGTCCCGCTTCTTTCATTAATCCGTTAGCAACTGTTTTGGTATATACATTTACCTTTTAAGAGGAGGAAT
[2]
  cleaved RNA product abundance: 0.237

## CGACATGTCCCGCTTCTTTCATTAATCCGTAAACAACTCTTTTGCTATATACATTTACCTTTTAAGAGGAGGAAT
[2]
  cleaved RNA product abundance: 0.202

## ACAGACGAAGGAGCCGCAAAGAAGTTTTTAAGGGATGACTAATCCCTCAATATAAATATCTCTCACTTATTTAAA
[1]
  cleaved RNA product abundance: 0.201
[3]
  cleaved RNA product abundance: 0.212

## ACAGACGAAGGAGCCGCAAAGATGTTATTAAGGGATGAATAATACCTCAATATAAATATCTCTCACTTATTTAAA
[1]
  cleaved RNA product abundance: 0.128
[3]
  cleaved RNA product abundance: 0.142

## ACAGACGAAGGAGCCGCACAGAAGTTATTAAGGGATGAACAATCCCTCAATATAAATATCTCTCACTTATTTAAA
[3]
  cleaved RNA product abundance: 0.614

## ACAGACGAAGGAGCCGCAAAAAAGTTATTAAGGGATGAATAATCCCTCAAGATAAATATCTCTCACTTATTTAAA
[1]
  cleaved RNA product abundance: 0.251

## ACAGACGAAGGAGCCGCAAAGAAGTTATTAAGGGATGAATAATCCCTCTATATAAATACCTCTCACTTATTTAAA
[3]
  cleaved RNA product abundance: 0.407

## ACAGACGAAGGAGCCGCAAAGAAGTTACTAAGGGATGAATAATCCCTCAAAATAAATATCTCTCACTTATTTAAA
[3]
  cleaved RNA product abundance: 0.288

## ACAGACGAAGGAGCCGCAAAGACGTTATAAAGGGATGAATAATCCCTCAATATAAATATCTCTCACTTATTTAAA
[3]
  cleaved RNA product abundance: 0.401

## CGACATGTCCCGCTTCTTTCATTAATCCGTTAGCAACTGTTTTGCTATATGCAATTACCTTTTAAGAGGAGGAAT
[2]
  cleaved RNA product abundance: 0.289

## CGACATGTCCCGCTTCTTTCATTAATCCGTTAGCAACTGTATTGCTATATTCATTTACCTTTTAAGAGGAGGAAT
[2]
  cleaved RNA product abundance: 0.16

## ACAGACGAAGGAGCCGCAAAGAAATTATTAAGTGATGAATAATCCCTCAAAATAAATATCTCTCACTTATTTAAA
[1]
  cleaved RNA product abundance: 0.117
[3]
  cleaved RNA product abundance: 0.0994

## ACAGACGAAGGAGCCGCAAAGAACTTATTAAGCGATGAATAATCCCTCAATATAAATATCTCTCACTTATTTAAA
[1]
  cleaved RNA product abundance: 0.0844
[3]
  cleaved RNA product abundance: 0.157

## CGACATGTCCCGCTTCTTTCATTAATCAGTTAGCAACTGTTTTTCTATATACATTTACCTTTTAAGAGGAGGAAT
[2]
  cleaved RNA product abundance: 0.642

## ACAGACGAAGGAGCCGCAAAGAAGTAATTAAGGGATGAATAATCCCTCAATATAACTATCTCTCACTTATTTAAA
[3]
  cleaved RNA product abundance: 0.215

## ACAGACGAAGGAGCCGCAAAGAAGTTATTAATGGATGAATAATCCCTCAATATAAATATCTCTCACTTATTTAAA
[1]
  cleaved RNA product abundance: 0.122
[3]
  cleaved RNA product abundance: 0.155
[4]
  cleaved RNA product abundance: 0.174

## ACAGACGAAGGAGCCGCAAAGAAGTTATTAAGGGATGAATAATCCCACAATATAAATATCTCTCACTTATTTAAA
[1]
  cleaved RNA product abundance: 0.204
[3]
  cleaved RNA product abundance: 0.279
[4]
  cleaved RNA product abundance: 0.271

## ACAGACGAAGGAGCCGCAAAGAAGTTATTAACGGATGAATAATCCCTCAATATAAATGTCTCTCACTTATTTAAA
[3]
  cleaved RNA product abundance: 0.0543

## ACAGACGAAGGAGCCGCAAAGAAGTTTTTAAGGGATGAATAATCCCTCAATATACATATCTCTCACTTATTTAAA
[3]
  cleaved RNA product abundance: 0.364

## CGACATGTCCCGCTTCTTTCATTAATCCGTTAGCAAGTGTTTTGCTATATAAATTTACCTTTTAAGAGGAGGAAT
[2]
  cleaved RNA product abundance: 0.803

## ACAGACGAAGGAGCCGCAAAGAAGTTATTAAGGGATGAATAATCCCTCAAGATAAATATCTCTCACTTATTTAAA
[1]
  cleaved RNA product abundance: 0.217
[3]
  cleaved RNA product abundance: 0.256
[4]
  cleaved RNA product abundance: 0.289

## CGACATGTCCCGCTTCTTTCATTAATCCGTTAGGAACTGTTTTGCTATATACATTTGCCTTTTAAGAGGAGGAAT
[2]
  cleaved RNA product abundance: 0.376

## ACAGACGAAGGAGCCGCAAAGAAGTTATTAAGGGATAAATGATCCCTCAATATAAATATCTCTCACTTATTTAAA
[3]
  cleaved RNA product abundance: 0.455

## ACAGACGAAGGAGCCGCAAAGAATTTAATAAGGGATGAATAATCCCTCAATATAAATATCTCTCACTTATTTAAA
[1]
  cleaved RNA product abundance: 0.25
[3]
  cleaved RNA product abundance: 0.309

## CGACATGTCCCGCTTCTTTCATTAAGCCGTTATCAACTGTTTTGCTATATACATTTACCTTTTAAGAGGAGGAAT
[2]
  cleaved RNA product abundance: 0.21

## CGACATGTCCCGCTTCTTTCATTAATCCGTTAGCAGCTGTTTTTCTATATACATTTACCTTTTAAGAGGAGGAAT
[2]
  cleaved RNA product abundance: 0.778

## ACAGACGAAGGAGCCGCAAAGAACTTATTAAGGGATGAATAATCCCTCAATATATATATCTCTCACTTATTTAAA
[3]
  cleaved RNA product abundance: 0.454

## CGACATGTCCCGCTTCTTTCATTAAGCCGTTACCAACTGTTTTGCTATATACATTTACCTTTTAAGAGGAGGAAT
[2]
  cleaved RNA product abundance: 0.21

## ACAGACGAAGGAGCCGCAAAGAAGTTATTAAGGGATGAATAATCCCTCTATATACATATCTCTCACTTATTTAAA
[1]
  cleaved RNA product abundance: 0.248
[3]
  cleaved RNA product abundance: 0.226

## ACAGACGAAGGAGCCGCAAAGAAGTTATTAAGGGATCAATTATCCCTCAATATAAATATCTCTCACTTATTTAAA
[3]
  cleaved RNA product abundance: 1.23

## ACAGACGAAGGAGCCGCAAAGAAGGTATTAAGGAATGAATAATCCCTCAATATAAATATCTCTCACTTATTTAAA
[1]
  cleaved RNA product abundance: 0.145
[3]
  cleaved RNA product abundance: 0.194

## ACAGACGAAGGAGCCGCAAAGAACTTATTAAGGGATGAATAATCCCTCAAGATAAATATCTCTCACTTATTTAAA
[1]
  cleaved RNA product abundance: 0.165
[3]
  cleaved RNA product abundance: 0.185

## CGACATGTCCCGCTTCTTTCATTAATCCGTTAGCAACTGTTTTCCTATATACATTTACATTTTAAGAGGAGGAAT
[2]
  cleaved RNA product abundance: 0.549

## CGACATGTCCCGCTTCTTTCATTACTCCGTTAGCAACTGTTTTGCTATATGCATTTACCTTTTAAGAGGAGGAAT
[2]
  cleaved RNA product abundance: 0.234

## ACAGACGAAGGAGCCGCAAAGAAGTTAATAACGGATGAATAATCCCTCAATATAAATATCTCTCACTTATTTAAA
[3]
  cleaved RNA product abundance: 0.177

## ACAGACGAAGGAGCCGCAAAGAAGTTATTAAGGGATCAATAATCCCTCAATATAAATACCTCTCACTTATTTAAA
[1]
  cleaved RNA product abundance: 0.479
[3]
  cleaved RNA product abundance: 0.36
